The target of this assay is T1, LigIV DBD (Met1-Ile240) (UniProt P49917 1-240).
T1 construct: source: E. coli Rosetta2 (DE3), purified (Ni-NTA, TEV, SEC); not shown: His tag, N-terminal, cleaved
T1 sequence (looked up): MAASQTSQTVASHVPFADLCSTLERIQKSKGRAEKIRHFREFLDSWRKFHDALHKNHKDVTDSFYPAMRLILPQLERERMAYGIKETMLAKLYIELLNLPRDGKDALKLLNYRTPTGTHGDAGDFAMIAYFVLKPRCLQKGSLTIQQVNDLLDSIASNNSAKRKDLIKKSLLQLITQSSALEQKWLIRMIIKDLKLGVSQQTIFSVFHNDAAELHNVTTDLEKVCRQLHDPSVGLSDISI
Description: fluorescence polarisation; 25 nM FAM-labeled peptide constant, LigIV DBD 5 nM–200 μM; 15 mM Tris pH 7.5, 65 mM NaCl, 0.7 mM βME; 20 min. Particulars: both partners purified. Background: Polarisation of emitted light reports the rotation of a fluorescent probe.

Where no end group is shown, it is not given here.

Our source for the Kd values is paper PMC13649775 (Nature Communications, 2026).

B1: FAM-labeled Artemis 486-496 peptide (peptide)
peptide: {FAM}-VPQWEVFFKRN
notes: Artemis, residues 486-496; also called Artemis peptide; source: synthetic peptide (GenScript)
Take B1: the Kd (usually a measure of binding affinity in units of concentration) was 1.5 to 4 µM.

B2: FAM-labeled Ku70 1-11 peptide (peptide)
peptide: {FAM}-MSGWESYYKTE
notes: Ku70, residues 1-11; The results call the modelled stretch 'Ku70 CTR', but the peptide is residues 1-11; also called Ku70 peptide; source: synthetic peptide (GenScript)
In turn, B2 returned a dissociation constant Kd of 29 to 30 µM.
